Experimental data as given in patent publication US20250011406A1 (US Dept. of Health and Human Services, published 2025).
Positions count from the first letter of the chain named. No end group written: not given here.

Legend:
[1] = biological target: T1, mature CIS43 antibody (IgG); test: competition ELISA (MSD): peptide pre-incubated with CIS43, read-out CIS43 bound to plate-bound rPfCSP
T1 construct: also called CIS43 WT
Experimental: Peptides were all 15 amino acids in length, overlapping by 11 residues, and numbered according to their position on the protein. Briefly, streptavidin-coated plates (Meso Scale Discovery, MSD) were blocked with 5% BSA in PBS for 30 min at room temperature (RT), washed five times (wash buffer, 0.05% Tween-20 in PBS), then coated with biotinylated-recombinant PfCSP (0.2 μg/mL, Genscript) in PBS with 1% BSA, and allowed to incubate for 1 h at RT. […] Plates were incubated for 1 h at RT, washed five times, then incubated for an additional 1 h at RT with 1 μg/mL of appropriate secondary (either anti-human or anti-mouse) IgG SULFO-TAG (Meso Scale Discovery) in PBS with 1% BSA/0.05% Tween-20. After washing, plates were read using 1×MSD Read T Buffer (Meso Scale Discovery) on an MSD SECTOR © Imager 6000 instrument.

[2] = biological target: T2, peptide NANP5, penta-NANP repeat (not fully specified; biotinylated); test: BLI (Octet), Fab on biotinylated NANP5 peptide
T2 construct: Printed only as the formula (NANP)5 / NANP5
T2 peptide: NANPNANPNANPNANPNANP
Experimental: (§1) Affinity measurements by BLI. Antibody Fab binding affinity to various ligands were measured using biolayer interferometry on an Octet Red384 instrument (fortdBio) with streptavidin capture biosensors (fortdBio) in solid black tilt-well 96-well plates (Geiger Bio-One). Assays were performed with agitation at 25° C. […] In all Octet measurements, parallel correction to subtract systematic baseline drift was carried out by subtracting the measurements recorded for a loaded sensor incubated in PBS. Data analysis was carried out using Octet software, version 9.0. Experimental data were fitted globally with a 1:1 Langmuir model of binding.

[3] = biological target: T3, recombinant Plasmodium falciparum circumsporozoite protein (rPfCSP), biotinylated (Plasmodium falciparum, UniProt P19597 21-375); test: BLI (Octet), Fab on biotinylated rPfCSP; 2-component fit, primary KD
Experimental: as §1

[4] = biological target: T3, recombinant Plasmodium falciparum …; test: BLI (Octet), Fab on biotinylated rPfCSP; 2-component fit, second KD (KD2)
Experimental: as §1

[5] = biological target: T4, NPDP19-KLH conjugate (Plasmodium falciparum, also: conjugated to KLH carrier via maleimide linker, site not given here); test: ELISA on NPDP19-KLH
T4 construct: not shown: KLH carrier protein (about 390 kDa)
T4 peptide: KQPADGNPDPNANPNVDPN

T3 sequence (P19597 21-375 limits assumed): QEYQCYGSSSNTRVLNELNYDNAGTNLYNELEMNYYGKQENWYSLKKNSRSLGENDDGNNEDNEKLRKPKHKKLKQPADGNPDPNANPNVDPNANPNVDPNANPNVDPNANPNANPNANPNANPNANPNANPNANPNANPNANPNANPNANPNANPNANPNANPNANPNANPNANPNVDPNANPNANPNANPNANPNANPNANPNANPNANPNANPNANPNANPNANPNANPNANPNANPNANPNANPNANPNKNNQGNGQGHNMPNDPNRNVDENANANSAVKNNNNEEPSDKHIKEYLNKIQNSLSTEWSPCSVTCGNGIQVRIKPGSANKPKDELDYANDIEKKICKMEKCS
T1 sequence (heavy, as listed by the source, chain 1 of 2): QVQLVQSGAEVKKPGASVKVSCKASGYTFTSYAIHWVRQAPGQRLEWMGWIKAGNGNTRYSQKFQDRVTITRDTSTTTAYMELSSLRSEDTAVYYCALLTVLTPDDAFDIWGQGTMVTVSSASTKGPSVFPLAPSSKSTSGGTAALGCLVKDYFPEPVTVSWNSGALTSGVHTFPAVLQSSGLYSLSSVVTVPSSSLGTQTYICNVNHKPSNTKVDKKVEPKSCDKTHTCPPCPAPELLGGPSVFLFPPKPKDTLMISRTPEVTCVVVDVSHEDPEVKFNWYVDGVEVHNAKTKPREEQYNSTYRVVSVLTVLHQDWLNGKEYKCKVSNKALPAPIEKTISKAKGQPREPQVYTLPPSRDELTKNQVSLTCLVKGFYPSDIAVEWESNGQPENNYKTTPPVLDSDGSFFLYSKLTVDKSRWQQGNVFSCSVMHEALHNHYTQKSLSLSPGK
T1 sequence (light, as listed by the source, chain 2 of 2): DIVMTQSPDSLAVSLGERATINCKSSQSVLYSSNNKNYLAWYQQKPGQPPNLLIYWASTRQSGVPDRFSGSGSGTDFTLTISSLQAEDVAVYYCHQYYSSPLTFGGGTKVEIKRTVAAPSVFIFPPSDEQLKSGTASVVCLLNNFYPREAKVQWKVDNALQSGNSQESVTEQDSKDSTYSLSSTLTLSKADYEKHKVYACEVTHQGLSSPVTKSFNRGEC

NVDPNANPNANPNAN (also called PfCSP peptide 27) [27: NVDPNANPNANPNAN]
binding result [1]: binds

NANPNANPNVDPNAN (also called PfCSP peptide 43) [43: NANPNANPNVDPNAN]
binding result [1]: binds

NANPNVDPNANPNAN (also called PfCSP peptide 44) [44: NANPNVDPNANPNAN]
binding result [1]: binds

B1: iGL-CIS43-HL.K28.m43.151 Fab (Fab, V domains shown)
VH: QVHLVQSGAEVKKPGASVKVSCKASGYTFTSYAIHWVRQAPGQRLEWMGWIKGGNGNTRYSQKFQDRVTITRDTSASTAYMELSSLRSEDTAVYYCALLTVITPDDAFDIWGQGTMVTVSS
VL: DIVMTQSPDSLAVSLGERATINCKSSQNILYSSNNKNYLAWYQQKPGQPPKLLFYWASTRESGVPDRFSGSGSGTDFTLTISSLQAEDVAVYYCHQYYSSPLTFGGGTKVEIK
notes: also called m43_HH28K.17
Kd [2]: 715 nM
Kd [3]: 38.3 nM
Kd [4]: 1700 nM

B2: inferred germline CIS43 (iGL-CIS43) mAb (IgG) (antibody, V domains shown)
VH: B1 VH with H3Q, I34M, K52N, G53A, R59K, D66G, I102V
VL: not shown
notes: also called CIS43 gHgL; iGL-CIS43_UCA
binding result [5]: binds

B3: iGL-CIS43-HL.K28.m42.127 Fab (Fab, V domains shown)
VH: B1 VH with H3Q, G53A, A107T
VL: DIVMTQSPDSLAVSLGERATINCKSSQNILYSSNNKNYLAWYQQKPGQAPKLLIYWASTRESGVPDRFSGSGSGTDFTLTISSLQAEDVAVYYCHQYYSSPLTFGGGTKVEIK
notes: also called m42_HH28K.13
Kd [2]: 952 nM
Kd [3]: 31.6 nM
Kd [4]: 1980 nM

B4: inferred germline CIS43 (iGL-CIS43) Fab (Fab, V domains shown)
VH: B1 VH with H3Q, I34M, K52N, G53A, R59K, D66G, I102V
VL: not shown
notes: as for B2
Kd [2]: 9650 nM
Kd [3]: 679 nM
Kd [4]: 5050 nM

B5: m43.160 Fab (Fab, V domains shown)
VH: B1 VH with H3Q, G53A, D66G, V93G
VL: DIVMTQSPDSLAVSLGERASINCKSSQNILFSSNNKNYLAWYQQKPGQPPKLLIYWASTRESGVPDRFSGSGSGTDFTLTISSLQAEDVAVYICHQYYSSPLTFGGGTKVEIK
notes: also called m43_HH28K.26
Kd [2]: 957 nM
Kd [3]: 36.8 nM
Kd [4]: 1820 nM

B6: mature CIS43 Fab (Fab, V domains shown)
VH: B1 VH with H3Q, G53A, A76T, S77T, I102L
VL: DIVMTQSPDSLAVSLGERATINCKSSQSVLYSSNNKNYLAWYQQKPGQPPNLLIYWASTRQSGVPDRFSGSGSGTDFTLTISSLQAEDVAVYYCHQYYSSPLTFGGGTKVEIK
notes: also called CIS43 mature; CIS43 WT
Kd [2]: 411 nM
Kd [3]: 45.2 nM
Kd [4]: 1330 nM
